Assay results published in US20220177587A1, “METHODS AND USES OF VARIANT CD80 FUSION PROTEINS AND RELATED CONSTRUCTS” (Alpine Immune Sciences, Inc., priority 2018, published 2022).
Where a chain is given by its changes, count along the chain named. Names and notes keep the numbering of the source.

B1: variant CD80 IgV-Fc E35D/M47V/K89N (Fc fusion)
chain: VIHVTKEVKEVATLSCGHNVSVEELAQTRIYWQKDKKMVLTMMSGDVNIWPEYKNRTIFDITNNLSIVILALRPSDEGTYECVVLKYENDAFKREHLAEVTLSVKAD
B2: variant CD80 IgV-Fc E35D/D46V/M47V/N48K/V68M (Fc fusion)
chain: B1 chain with D46V, N48K, V68M, N89K
B3: variant CD80 IgV-Fc M47V/V68M (Fc fusion)
chain: B1 chain with D35E, V68M, N89K
B4: variant CD80 IgV-Fc M47V/N48K/V68M (Fc fusion)
chain: B1 chain with D35E, N48K, V68M, N89K
B5: variant CD80 IgV-Fc M47V (Fc fusion)
chain: B1 chain with D35E, N89K
B6: variant CD80 IgV-Fc E35D/K89N (Fc fusion)
chain: B1 chain with V47M
B7: CD80 Y53C/L70Q/D90G/T130A/N149D/N152T/H188D ECD-Fc (Fc fusion)
chain: VIHVTKEVKEVATLSCGHNVSVEELAQTRIYWQKEKKMVLTMMSGDMNIWPECKNRTIFDITNNLSIVIQALRPSDEGTYECVVLKYEKGAFKREHLAEVTLSVKADFPTPSISDFEIPTSNIRRIICSASGGFPEPHLSWLENGEELDAITTTVSQDPETELYAVSSKLDFNMTTNHSFMCLIKYGDLRVNQTFNWNTTKQEHFPDN
B8: CD80 Y53C/L85R/K89N/A91T/F92P/K93V/R94L/I118V/T120S/I127T/T130A/K169E ECD-Fc (Fc fusion)
chain: VIHVTKEVKEVATLSCGHNVSVEELAQTRIYWQKEKKMVLTMMSGDMNIWPECKNRTIFDITNNLSIVILALRPSDEGTYECVVRKYENDTPVLEHLAEVTLSVKADFPTPSISDFEVPSSNIRRITCSASGGFPEPHLSWLENGEELNAINTTVSQDPETELYAVSSELDFNMTTNHSFMCLIKYGHLRVNQTFNWNTTKQEHFPDN
B9: variant CD80 IgV-Fc V22A/E35D/M47I/Y87N (Fc fusion)
chain: B1 chain with V22A, V47I, Y87N, N89K
B10: variant CD80 IgV-Fc D46V/M47I/A71G (Fc fusion)
chain: B1 chain with D35E, D46V, V47I, A71G, N89K
B11: variant CD80 IgV-Fc Q27L/E35D/M47V/I61V/L85M (Fc fusion)
chain: B1 chain with Q27L, I61V, L85M, N89K
B12: variant CD80 IgV-Fc E35D/M47L/A71G/L85M (Fc fusion)
chain: B1 chain with V47L, A71G, L85M, N89K
B13: variant CD80 IgV-Fc Q27H/E35D/M47I (Fc fusion)
chain: B1 chain with Q27H, V47I, N89K
B14: variant CD80 IgV-Fc E35D/D46E/L85M (Fc fusion)
chain: B1 chain with D46E, V47M, L85M, N89K
B15: variant CD80 IgV-Fc M47I/A71G (Fc fusion)
chain: B1 chain with D35E, V47I, A71G, N89K
B16: variant CD80 IgV-Fc E35D/D46E (Fc fusion)
chain: B1 chain with D46E, V47M, N89K
B17: variant CD80 IgV-Fc E35D/D46E/M47I (Fc fusion)
chain: B1 chain with D46E, V47I, N89K
B18: variant CD80 IgV-Fc H18Y/E35D/M47L/A71G/A91S (Fc fusion)
chain: B1 chain with H18Y, V47L, A71G, N89K, A91S
B19: variant CD80 IgV-Fc E35D/L97R (Fc fusion)
chain: B1 chain with V47M, N89K, L97R

target: CD28 (human) (UniProt P10747); experiment: not given

Binder	IL-2 luciferase reporter, fold increase over WT CD80-IgV-Fc at 5.0 nM [fold]
B1	5.8
B2	6.1
B3	4.8
B4	5.8
B5	3.9
B6	2.5

target: human PD-L1 (human) (UniProt Q9NZQ7); experiment: not given
Target sequence in this assay (Q9NZQ7 19-290 limits assumed): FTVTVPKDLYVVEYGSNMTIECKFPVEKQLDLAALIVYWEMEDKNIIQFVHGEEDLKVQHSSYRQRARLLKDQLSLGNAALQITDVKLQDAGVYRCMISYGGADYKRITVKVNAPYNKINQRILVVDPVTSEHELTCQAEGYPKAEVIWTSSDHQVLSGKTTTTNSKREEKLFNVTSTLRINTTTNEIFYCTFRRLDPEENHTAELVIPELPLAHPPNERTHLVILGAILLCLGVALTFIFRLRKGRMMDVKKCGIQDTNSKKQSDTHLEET

Binder	IL-2 luciferase reporter, fold increase over WT CD80-IgV-Fc at 5.0 nM [fold]
B1	5.8
B2	6.1
B3	4.8
B4	5.8
B5	3.9
B6	2.5

target: CD28 (human) (UniProt P10747); experiment: flow cytometry, transfected Expi293F cells

Binder	MFI	parental ratio
B7	1990	0.04
B8	1400	0.03

target: human CTLA-4 (human) (UniProt P16410); experiment: flow cytometry, transfected Expi293F cells
Sequence (P16410 36-223): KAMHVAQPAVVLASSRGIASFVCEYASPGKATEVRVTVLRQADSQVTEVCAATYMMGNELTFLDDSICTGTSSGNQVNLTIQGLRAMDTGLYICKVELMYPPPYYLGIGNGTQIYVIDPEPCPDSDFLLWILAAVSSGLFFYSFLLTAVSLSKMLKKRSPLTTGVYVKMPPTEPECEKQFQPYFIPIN

Binder	MFI	parental ratio
B7	3110	0.01
B8	1460	0.01

target: human PD-L1 (human) (UniProt Q9NZQ7); experiment: flow cytometry, transfected Expi293F cells
Target sequence in this assay (Q9NZQ7 19-290): as the sequence (Q9NZQ7 19-290 limits assumed) above

Binder	MFI	parental ratio
B7	3290	0.04
B8	2550	0.03

target: human CTLA-4 (human) (UniProt P16410); experiment: flow cytometry, CHO cells expressing huCTLA4

Binder	MFI at 33.3 nM [MFI]
B9	246000

target: human PD-L1 (human) (UniProt Q9NZQ7); experiment: flow cytometry, CHO cells expressing huPD-L1
Target sequence in this assay (Q9NZQ7 19-290): as the sequence (Q9NZQ7 19-290 limits assumed) above

Binder	MFI at 33.3 nM [MFI]
B1	4340
B2	25900
B9	35300
B3	4290
B4	14500
B5	2320
B6	757

target: human CTLA-4 (human) (UniProt P16410); experiment: flow cytometry, CHO cells expressing huCTLA-4

Binder	MFI at 33.3 nM [MFI]
B1	39300
B2	23900
B3	7280
B4	34600
B5	33300
B6	21800

target: CD28 (human) (UniProt P10747); experiment: flow cytometry, Jurkat/IL2 reporter cells (CD28)

Binder	MFI at 33.3 nM [MFI]
B1	507
B2	1080
B9	15300
B3	328
B4	641
B5	68.7
B6	236

target: human PD-L1 (human) (UniProt Q9NZQ7); experiment: flow cytometry; PD-L1 MFI over CD28 MFI of the same protein
Target sequence in this assay (Q9NZQ7 19-290): as the sequence (Q9NZQ7 19-290 limits assumed) above

Binder	Ratio of PDL1:CD28
B1	8.6
B2	23.9
B3	13.1
B4	22.6
B5	33.7
B6	3.2

target: human PD-L1 (human) (UniProt Q9NZQ7); experiment: flow cytometry, CHO/huPD-L1 cells; vs WT CD80 ECD-Fc (Abcam)
Target sequence in this assay (Q9NZQ7 19-290): as the sequence (Q9NZQ7 19-290 limits assumed) above

Binder	Fold change to WT CD80 [fold]
B1	33.9
B2	203
B3	33.5
B4	113
B5	18.1
B6	5.9

target: human CTLA-4 (human) (UniProt P16410); experiment: flow cytometry, CHO/huCTLA-4 cells; vs WT CD80 ECD-Fc (Abcam)

Binder	Fold change to WT CD80 [fold]
B1	1
B2	0.6
B3	0.2
B4	0.9
B5	0.8
B6	0.5

target: CD28 (human) (UniProt P10747); experiment: flow cytometry, Jurkat cells (CD28); vs WT CD80 ECD-Fc (Abcam)

Binder	Fold change to WT CD80 [fold]
B1	0.7
B2	1.5
B3	0.5
B4	0.9
B5	0.1
B6	0.3

target: human CTLA-4 (human) (UniProt P16410); experiment: flow cytometry, CHO cells expressing huCTLA4, vs WT CD80 ECD-Fc (R&D)

Binder	Fold change to WT CD80 [fold]
B9	1.56

target: CD28 (human) (UniProt P10747); experiment: flow cytometry, Jurkat/IL2 reporter cells (CD28), vs WT CD80 ECD-Fc (R&D)

Binder	Fold change to WT CD80 [fold]
B9	0.85

target: human PD-L1 (huPD-L1), on stably transduced CHO cells (human) (UniProt Q9NZQ7); experiment: flow cytometry; ratio of MFI on CHO/huPD-L1 cells to MFI on Jurkat (CD28) cells
Sequence (Q9NZQ7 19-290): as the sequence (Q9NZQ7 19-290 limits assumed) above

Binder	Ratio of PDL1:CD28
B10	6
B11	12
B12	42
B13	5
B14	18
B15	6
B16	5
B17	4
B18	14

target: human CTLA-4 (huCTLA4), on stably transduced CHO cells (human) (UniProt P16410); experiment: flow cytometry on CHO/huCTLA4 cells; MFI relative to WT CD80 (CD80 WT IgV-Fc = 1.0)
Sequence (P16410 36-223): as the sequence (P16410 36-223) above

Binder	Fold change to WT CD80 [fold]
B10	14.8
B11	14.6
B12	8.7
B13	14.4
B14	15.8
B15	14.5
B16	14.6
B17	11.2
B18	12.6

target: human PD-L1 (huPD-L1), on stably transduced CHO cells (human) (UniProt Q9NZQ7); experiment: flow cytometry on CHO/huPD-L1 cells; MFI relative to WT CD80 (CD80 WT IgV-Fc = 1.0)

Binder	Fold change to WT CD80 [fold]
B10	104
B11	38.5
B12	118
B13	48.7
B14	41
B15	72.5
B16	53.4
B17	53.9
B18	108

target: CD28, endogenously expressed on Jurkat/IL2 reporter cells (human) (UniProt P10747); experiment: flow cytometry on Jurkat (CD28) cells; MFI relative to WT CD80 (CD80 WT IgV-Fc = 1.0)

Binder	Fold change to WT CD80 [fold]
B10	20.1
B11	3.5
B12	3
B13	11.5
B14	2.5
B15	12.5
B16	11.8
B17	15.2
B18	8

target: human CTLA-4 (huCTLA4), on stably transduced CHO cells (human) (UniProt P16410); experiment: flow cytometry on CHO cells stably expressing huCTLA4, 33.3 nM Fc fusion, PE anti-human Fc

Binder	MFI at 33.3 nM [MFI]
B10	28400
B11	27900
B12	16600
B13	27500
B14	30300
B15	27800
B16	27900
B17	21400
B19	22800
B18	24200

target: human PD-L1 (huPD-L1), on stably transduced CHO cells (human) (UniProt Q9NZQ7); experiment: flow cytometry on CHO cells stably expressing huPD-L1, 33.3 nM Fc fusion, PE anti-human Fc

Binder	MFI at 33.3 nM [MFI]
B10	7330
B11	2700
B12	8310
B13	3420
B14	2880
B15	5100
B16	3760
B17	3790
B19	2610
B18	7580

target: CD28, endogenously expressed on Jurkat/IL2 reporter cells (human) (UniProt P10747); experiment: flow cytometry on Jurkat/IL2 reporter cells (endogenous CD28), 33.3 nM Fc fusion, PE anti-human Fc

Binder	MFI at 33.3 nM [MFI]
B10	1320
B11	230
B12	199
B13	756
B14	164
B15	823
B16	779
B17	1000
B19	44.6
B18	528
